Molecular target: Mlp2p–protein A (PrA) (S. cerevisiae, UniProt P40457 1-1679)
Assay: far-Western, overlay or dot blot

Sequence of Mlp2p–protein A (PrA) (P40457 whole entry): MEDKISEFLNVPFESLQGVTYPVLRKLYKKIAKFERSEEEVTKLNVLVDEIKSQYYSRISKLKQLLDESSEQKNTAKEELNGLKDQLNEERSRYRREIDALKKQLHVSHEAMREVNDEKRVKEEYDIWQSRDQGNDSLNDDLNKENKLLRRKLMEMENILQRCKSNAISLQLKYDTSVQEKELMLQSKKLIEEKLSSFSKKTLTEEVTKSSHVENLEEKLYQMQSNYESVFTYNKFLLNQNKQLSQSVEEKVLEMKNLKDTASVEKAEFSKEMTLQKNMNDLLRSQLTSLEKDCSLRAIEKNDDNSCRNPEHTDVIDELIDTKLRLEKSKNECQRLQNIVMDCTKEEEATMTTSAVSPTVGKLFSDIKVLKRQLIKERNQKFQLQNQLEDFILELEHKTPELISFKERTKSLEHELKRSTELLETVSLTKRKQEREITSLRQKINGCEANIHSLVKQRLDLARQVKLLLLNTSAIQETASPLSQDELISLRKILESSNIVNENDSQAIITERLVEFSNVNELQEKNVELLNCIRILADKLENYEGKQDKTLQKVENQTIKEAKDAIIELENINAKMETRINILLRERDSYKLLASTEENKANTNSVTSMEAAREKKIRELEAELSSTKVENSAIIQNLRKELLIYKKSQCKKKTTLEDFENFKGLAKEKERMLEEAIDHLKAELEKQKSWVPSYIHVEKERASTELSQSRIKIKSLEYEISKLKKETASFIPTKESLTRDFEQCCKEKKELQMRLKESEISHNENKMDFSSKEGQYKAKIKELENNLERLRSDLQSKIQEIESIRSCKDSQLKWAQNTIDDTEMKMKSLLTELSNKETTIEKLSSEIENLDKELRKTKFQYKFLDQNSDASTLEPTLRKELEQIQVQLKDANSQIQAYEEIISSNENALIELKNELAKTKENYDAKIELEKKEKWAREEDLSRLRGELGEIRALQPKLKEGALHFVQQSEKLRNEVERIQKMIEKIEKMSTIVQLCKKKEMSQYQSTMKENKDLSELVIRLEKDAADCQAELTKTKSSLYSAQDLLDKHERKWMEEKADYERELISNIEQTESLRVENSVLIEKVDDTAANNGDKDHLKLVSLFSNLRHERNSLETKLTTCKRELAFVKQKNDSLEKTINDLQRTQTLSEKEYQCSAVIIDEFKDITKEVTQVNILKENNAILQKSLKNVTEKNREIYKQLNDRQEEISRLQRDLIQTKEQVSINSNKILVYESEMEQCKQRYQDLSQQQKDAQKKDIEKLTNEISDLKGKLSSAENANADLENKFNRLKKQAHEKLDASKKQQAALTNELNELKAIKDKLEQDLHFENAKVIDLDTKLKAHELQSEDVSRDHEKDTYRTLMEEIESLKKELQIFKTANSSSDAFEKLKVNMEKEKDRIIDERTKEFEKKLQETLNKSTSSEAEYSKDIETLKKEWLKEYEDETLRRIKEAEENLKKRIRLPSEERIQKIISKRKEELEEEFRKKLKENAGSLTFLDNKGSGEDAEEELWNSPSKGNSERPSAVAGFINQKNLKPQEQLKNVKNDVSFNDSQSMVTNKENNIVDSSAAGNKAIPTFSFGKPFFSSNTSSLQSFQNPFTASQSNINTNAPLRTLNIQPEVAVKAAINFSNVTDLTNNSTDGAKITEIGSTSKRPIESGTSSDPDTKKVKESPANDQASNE

B1: Spc110p (natural protein, UniProt P32380 1-944, looked up)
chain: MDEASHLPNGSLKNMEFTPVGFIKSKRNTTQTQVVSPTKVPNANNGDENEGPVKKRQRRSIDDTIDSTRLFSEASQFDDSFPEIKANIPPSPRSGNVDKSRKRNLIDDLKKDVPMSQPLKEQEVREHQMKKERFDRALESKLLGKRHITYANSDISNKELYINEIKSLKHEIKELRKEKNDTLNNYDTLEEETDDLKNRLQALEKELDAKNKIVNSRKVDDHSGCIEEREQMERKLAELERKLKTVKDQVLELENNSDVQSLKLRSKEDELKNLMNELNELKSNAEEKDTQLEFKKNELRKRTNELNELKIKSDEMDLQLKQKQNESKRLKDELNELETKFSENGSQSSAKENELKMLKNKIAELEEEISTKNSQLIAKEGKLASLMAQLTQLESKLNQRDSQLGSREEELKKTNDKLQKDIRIAREETVSKDERIIDLQKKVKQLENDLFVIKKTHSESKTITDNELESKDKLIKILENDLKVAQEKYSKMEKELKEREFNYKISESKLEDEKTTLNEKISNLAAENSQLKNKIEDNSTATHHMKENYEKQLESLRKDIEEYKESAKDSEDKIEELKIRIAENSAKVSEKRSKDIKQKDEQISDLTQNLKLQEDEISSLKSIIDRYKKDFNQLKSEQSNIQHDLNLQILNLENKLIESEDELKSLRDSQKIEIENWKRKYNNLSLENDRLLTEKESASDKEREISILNRKLDEMDKEKWNLQESKEKYKRELQKVITANDRLRREKEELNENSNNIRIMEDKMTRIKKNYLSEITSLQEENRRLEERLILNERRKDNDSTMQLNDIISYYKLKYHSEVRHNNDLKVINDYLNKVLALGTRRLRLDTRKGEHSLNISLPDDDELDRDYYNSHVYTRYHDYEYPLRFNLNRRGPYFERRLSFKTVALLVLACVRMKRIAFYRRSDDNRLRILRDRIESSSGRISW
binding result: binds

B2: Spc42p (natural protein, UniProt P36094 1-363, looked up)
chain: MNGSPTPKRYSSKSSRLYDDYYNIPYQYSNPTPMNRDYNDVGSRINADKLVPEEYKRNTEFINKAVQQNKELNFKLREKQNEIFELKKIAETLRSKLEKYVDITKKLEDQNLNLQIKISDLEKKLSDANSTFKEMRFPKVKDPMVDDDPVSENYDQINVPKHRAPDATGNPRTTNKVSNTSDQDSRLKAIERTLSVLTNYVMRSEDGNNDRMSPLPSPLNTILPINNRLNFQEPKRYNPTVKVNPSDDDIMMYESAELKRVEEEIEELKRKILVRKKHDLRKLSLNNQLQELQSMMDGDDNIKLDNVSKHNHATHRHSSQSSRDYSPSSDACLECSNDLYEKNRVKPENNMSETFATPTPNNR
binding result: binds

B3: Spc29p (natural protein, UniProt P33419 1-253, looked up)
chain: MDYSNFGNSASKKFQDDTLNRVRKEHEEALKKLREENFSSNTSELGNKKHYRAQERMSSPLHRLSPTGKSDDRKVKSPLDDKLRRQLREGNTRLPPPPFSSYGMPPTNRSNLDRIRRRTSSPVRTDKFASQNVIDDQRLEIKYLERIVYDQGTVIDNLTSRITRLESFILNSISDRGDKNFASLEHSRSFSGFPTNKTYGLQMGGLYENDMPYRRSSDNINKEGAREDRSSQIHIENESTEDILKILSSSFHN
binding result: binds
